Assay results from publication PMC8111002 (Communications Biology, 2021).

How the values were obtained:
[1] = target: the molecule itself; experiment: crystal structure
[2] = target: Stx2a A-subunit (enterohemorrhagic Escherichia coli, UniProt P09385 23-319); experiment: crystal structure; conditions: both partners purified

B1: Stx2a B-subunit pentamer of the holotoxin (untagged) (natural protein)
chain: ADCAKGKIEFSKYNEDDTFTVKVDGKEYWTSRWNLQPLLQSAQLTGMTVTIKSSTCESGSGFAEVQFNND
[1]
  binding result: binds
[2]
  binding result: binds
